Laboratory results: paper PMC9573943, “Contribution of the 12–17 hydrophobic region of islet amyloid polypeptide in self-assembly and cytotoxicity” (Frontiers in Molecular Biosciences, 2022)
Bridge positions count the residues as written; N and C are the ends. Ends that are not written are not given here.

Experiments:
[1] = Peptide self-assembly under fully quiescent conditions (CD, ThT and ANS fluorescence, TEM, AFM); format: physicochemical; settings: 50 μM peptide; for Assemblies observed by TEM after 48 h incubation: negative stain TEM; for ThT fluorescence of incubated peptide, in words: diluted to 25 μM with 40 μM ThT; for Secondary conformation / conformational transition over incubation (far-UV CD), in words / Incubation time at which the random coil to β-sheet conformational transition is seen (far-UV CD): fully quiescent; for Secondary conformation / conformational transition over incubation (far-UV CD), in words: up to 7 days; for Overall effect of the substitution on amyloid formation, in words: CD, ThT, ANS, TEM, compared with unmodified IAPP; for Incubation time at which the random coil to β-sheet conformational transition is seen (far-UV CD): microtubes, diluted to 25 μM for CD
Protocol: Solutions were prepared by dissolving the peptide at a concentration of 50 μM in 20 mM Tris-HCl, pH 7.4, and were incubated at room temperature without agitation in 1.5 ml Eppendorf microtubes. For IAPP12-17, the lyophilized peptide was dissolved in 20 mM acetate pH 6.5 in the presence of 3% DMSO, or HFIP, at a final concentration of 500 μM and the peptide solution was incubated at 37 °C under constant rotational agitation.
At the indicating time of incubation, peptide solutions were diluted to 25 μM in presence of 40 μM ThT, or 25 μM 8-anilino-1-naphthalenesulfonic acid (ANS). Fluorescence was measured in 10-mm pathlength microcells using a PTI QuantaMaster spectrofluorometer. For ThT, excitation was set at 440 nm, and the emission spectrum from 450 to 550 nm was recorded. For ANS, the excitation was set at 355 nm, and the emission scan was recorded from 385 to 585 nm.
After incubation, peptide solutions were diluted in water to 25 μM and incorporated into a 2-mm path length quartz cell. For IAPP12-17, the solution was diluted to 150 μM. Far-UV CD spectra were recorded from 190 to 260 nm using a Jasco J-815 CD spectropolarimeter at 25°C. The wavelength step was set at 0.5 nm with an average time of 10 s per scan at each wavelength. Spectra were background-subtracted with buffer solution. Raw data were converted to mean residue ellipticity (MRE): MRE=Mean residue weight (g/mol)X CD signal (deg)/10 X pathlength (cm) X peptide concentration (g/mL)
After incubation, peptide solutions were diluted to 10 μM, or 100 μΜ for IAPP12-17, before being applied on glow-discharged carbon films on 300-mesh copper grids. Samples were adsorbed and negatively stained with 1.5% uranyl formate for 45 s. Images were recorded using a FEI Tecnai G2 Spirit Twin microscope operating at 120 kV and equipped with a Gatan Ultrascan scan 4,000 4k × 4k CCD camera system.
After incubation, peptide solutions were diluted in 1% acetic acid to a concentration of 7.5 μΜ. […] Images were recorded using Veeco/Bruker multimode AFM instrument using ScanAsyst-air mode with a silicon tip (2–12 nm tip radius, 0.4 N/m force) on a nitride lever. Images were taken at 0.977 Hz and 512 scan/min.

[2] = Lipid membrane leakage (calcein-loaded LUVs); settings: 25 μM peptide, 500 μM phospholipids, LUVs DOPC:DOPG 9:1, 20 mM Tris-HCl, 150 mM NaCl, pH 7.4, read every 10 min over 24 h; IAPP value reached after 10 h; at least four assays
Protocol: Large unilamellar vesicles (LUVs) were assembled from 1,2-Dioleoyl-sn-glycero-3-phosphocholine (DOPC) and 2-dioleoyl-sn-glycero-3-phospho-(1′-rac-glycerol) (DOPG) at a 9:1 M ratio (DOPC:DOPG). Lipids were solubilized in 100% chloroform, which was then evaporated. […] The lipid mixture was freeze-thawed five times before being extruded through a 100 nm membrane for 20 cycles. Nonencapsulated calcein was removed by gel filtration using a Sephadex G25 fine resin and 20 mM Tris-HCl, 150 mM NaCl, pH 7.4, as elution buffer. Final lipid concentration was determined by a colorimetric assay ([Babych et al., 2021]). Lyophilized peptides were solubilized in 20 mM Tris-HCl, 150 mM NaCl, pH 7.4, at 50 μM prior to dilution into calcein-LUVs, to reach 25 μM peptide and 500 μM phospholipids. Fluorescence was monitored in sealed black-wall, clear-bottom 96-well non-binding surface plates with 100 μL/well. […] 100% leakage (Fmax) was determined with 0.2% Triton X-100 and LUV leakage was reported using:
Membrane leakage (%) = (F−F baseline)/(F max−F baseline)
Data of at least four assays with different peptide lots were averaged and expressed as the mean ± S.D. Statistical analysis was performed using Student’s t test, and statistically significant difference was established at (*) p < 0.05; (**) p < 0.005; (***) p < 0.0005.

[3] = system: INS-1E cells; assay: Cell viability by resazurin reduction; format: cell-based, Rat; settings: freshly dissolved peptide up to 50 μM, 24 h, at least five assays
Protocol: (§1) Rat INS-1E cells were cultured in treated black-wall clear-bottom 96-well plates at a density of 25,000 cell/well in RPMI-1640 medium supplemented with 10% FBS, 2 mM L-glutamine, 100 U/ml penicillin, 100 μg/ml streptomycin, 10 mM HEPES, 1 mM sodium pyruvate and 50 μM β-mercaptoethanol. After 48 h of incubation at 37°C in 5% CO2, cells were treated with 50 μL of peptide freshly dissolved in 20 mM Tris-HCl, pH 7.4. […] Cell viability (%) was calculated from the ratio of the fluorescence of the treated cells to the vehicle-treated cells. Data of at least five assays performed with different peptide lots were averaged and expressed as the mean ± S.D. Statistical analysis was performed using Student’s t test, and statistically significant difference was established at (*) p < 0.05; (**) p < 0.005; (***) p < 0.0005. For Live/Dead viability assay, cells were plated in 12-well plates at density of 250,000 cell/well for 48 h before treatment with 25 μM peptide.

[4] = system: INS-1E cells; assay: Live/Dead viability assay (calcein-AM / ethidium homodimer-1, fluorescence microscopy); format: cell-based, Rat; settings: 25 μM freshly solubilized peptide, 24 h, calcein-AM (green, live) and ethidium homodimer-1 (red, dead)
Protocol: as §1

[5] = Kinetics of amyloid formation monitored by ThT fluorescence; format: physicochemical; settings: 40 μM ThT, 20 mM Tris-HCl pH 7.4, 25°C, no agitation
Protocol: Aggregation mixtures were prepared by dissolving the lyophilized peptide at a concentration of 50 μM in 20 mM Tris-HCl, pH 7.4. Assays were performed at 25°C without stirring in sealed black-wall clear-bottom 96-well nonbinding surface plates with 100 μL/well. Final peptide concentrations were 12.5 and 25 μM, and thioflavin T (ThT) concentration was fixed at 40 μM. Fluorescence was measured every 10 min (excitation: 440 nm, emission: 485 nm) and data from triplicate wells were averaged, corrected by subtracting the blank control, and plotted as ThT fluorescence vs. time. Data were normalized with maximum ThT fluorescence intensity obtained for unmodified IAPP. Data were fitted to a sigmoidal Boltzmann model: Y=Yo+(Ymax−Yo)/1+e^−(T−T50)/ K where T 50 is the time required to reach half of the maximum fluorescence intensity, k is the apparent first-order constant, and Y max and Y 0 are the maximum and initial ThT fluorescence values. Lag time corresponds to T50 - 2/k. Data of at least six assays performed with different peptide lots were averaged and expressed as the mean ± S.D. Statistical analysis was performed using Student’s t test, and statistically significant difference between IAPP and analogs was established at (*) p < 0.05; (**) p < 0.005; (***) p < 0.0005.

[6] = 20 mM Tris-HCl pH 7.4, quiescent
[7] = 20 mM Tris-HCl pH 7.4, room temperature

Row | Substance | Assemblies observed by TEM after 48 h incubation [1, 6] | ThT fluorescence of incubated peptide, in words [1, 6] | Secondary conformation / conformational transition over incubation (far-UV CD), in words [1, 7] | Cytotoxicity compared with unmodified IAPP, in words [3] | Overall effect of the substitution on amyloid formation, in words [1, 6] | Incubation time at which the random coil to β-sheet conformational transition is seen (far-UV CD) [1, 7] [h] | further results
1 | V17A: full-length IAPP with Val17 substituted by Ala (KCNTATCATQRLANFLAHSSNNFGAILSSTNVGSNTY; disulfide 2-7; ends not checked; UniProt P10997 34-70, looked up, variant V17A) | short and poorly defined fibrils | low ThT and ANS binding properties | delayed the conformational transition | reduced IAPP toxicity |  |  | Maximum membrane leakage (calcein fluorescence, % of that with Triton X-100) [2]: 34%; Cell death in Live/Dead assay, in words [4]: decreased toxicity compared to unmodified IAPP
2 | L16P: full-length IAPP with Leu16 substituted by Pro (KCNTATCATQRLANFPVHSSNNFGAILSSTNVGSNTY; disulfide 2-7; ends not checked; UniProt P10997 34-70, looked up, variant L16P) |  | absence of a ThT and ANS signal | random coil conformation observed after 7 days incubation | less cytotoxic than unmodified IAPP | completely inhibited amyloid formation |  | 
3 | F15P: full-length IAPP with Pro at position Phe15 (KCNTATCATQRLANPLVHSSNNFGAILSSTNVGSNTY; disulfide 2-7; ends not checked; UniProt P10997 34-70, looked up, variant F15P) | absence fibrillar aggregates |  |  |  |  |  | Assemblies observed by AFM after 96 h incubation ([1]; 20 mM Tris-HCl pH 7.4, room temperature, no agitation, 96 h): typical fibrils
4 | N14P: full-length IAPP with Pro at position Asn14 (KCNTATCATQRLAPFLVHSSNNFGAILSSTNVGSNTY; disulfide 2-7; ends not checked; UniProt P10997 34-70, looked up, variant N14P) |  |  |  |  |  | 24 | Assemblies observed by AFM after 24 h incubation ([1]; 20 mM Tris-HCl pH 7.4, room temperature, no agitation, 24 h): dense network of fibrils
5 | A13G: full-length IAPP with Ala13 substituted by Gly (KCNTATCATQRLGNFLVHSSNNFGAILSSTNVGSNTY; disulfide 2-7; ends not checked; UniProt P10997 34-70, looked up, variant A13G) | presence of fibrillar aggregates |  |  | higher cytotoxicity compared to unmodified IAPP | accelerates IAPP amyloid self-assembly | ≤ 6 | 
6 | A13P: full-length IAPP with Ala13 substituted by Pro (KCNTATCATQRLPNFLVHSSNNFGAILSSTNVGSNTY; disulfide 2-7; ends not checked; UniProt P10997 34-70, looked up, variant A13P) | Prototypical fibrils |  |  | increased the cytotoxicity of IAPP at 12.5 and 25 μM | accelerated amyloid formation | 4 | Incubation time at which ThT and ANS positive signal arises ([1]; 20 mM Tris-HCl pH 7.4, quiescent, diluted to 25 μM with 40 μM ThT or 25 μM ANS): 6 h
7 | L12A: full-length IAPP with Leu→Ala substitution at position 12 (KCNTATCATQRAANFLVHSSNNFGAILSSTNVGSNTY; disulfide 2-7; ends not checked; UniProt P10997 34-70, looked up, variant L12A) | long and twisted fibrils | absence of a ThT-signal | remained mainly under a random coil structure after a week of incubation | reduced IAPP toxicity |  |  | ANS fluorescence of incubated peptide, in words ([1]; 20 mM Tris-HCl pH 7.4, quiescent, diluted to 25 μM with 25 μM ANS): low ANS fluorescence; Increase of ThT fluorescence signal ([5]; 12.5 μM peptide): no increase of ThT fluorescence signal could be detected; Lag time of amyloid formation ([5]; 25 μM peptide, nonbinding surface 96-well plate, read every 10 min, lag time = T50 - 2/k, mean ± S.D. of at least six assays): 13.5 ± 4.1 h; Cell death in Live/Dead assay, in words [4]: decreased toxicity compared to unmodified IAPP
